Data from the supplement of paper PMC9170038.

Tested on: MS2 coat protein
Assay: apparent KD of MS2 coat protein; designed switch direction (-1 OFF switch, 1 ON switch): 1; higher = weaker reporter binding
Method in brief: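 The apparent KD reported per design is the median over clusters of curve fits to normalised cluster fluorescence. The RNA switches were transcribed on Illumina chips by stalled E. coli RNA polymerase. SNAP-549-labelled MS2 coat protein was titrated from 0.7 or 1.5 nM, doubling up to 3 µM, in Tris-HCl pH 7.5 buffer containing KCl, MgCl2, BSA, DTT, tRNA and Tween-20, with no input, 200 uM small-molecule ligand, or an oligonucleotide input.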

[1] = input ligand: microRNA oligo, concentration not stated
[2] = Eterna round: R95, input ligand: FMN 200 uM
[3] = Eterna round: R95, input ligand: microRNA oligo, concentration not stated
[4] = Eterna round: R95, input ligand: none

Row | Sequence | apparent KD of MS2 coat protein [1] [nM] | apparent KD of MS2 coat protein [2] [nM] | apparent KD of MS2 coat protein [3] [nM] | apparent KD of MS2 coat protein [4] [nM] | apparent KD of MS2 coat protein (input ligand: FMN 200 uM) [nM] | apparent KD of MS2 coat protein (input ligand: none) [nM]
1 | AGCUAUUAAUCAGGAUAUAGGGACAUGAGGAUCACCCAUGUGUACAUGAUAAAAUGUGAUCACGUCUAGAAGGGAUUACUAACA [SameState NG2 #39] (Eterna round: R96, puzzle: Same State NG 2) | 52.5 |  |  |  |  | 
2 | ACUUGCUUUUUGCUCAUCUUAUGUCCGAAACAUGAGGAUCACCCAUGUGUAGAUUAUGUGUUGUUUUUGAUACGUGA [JR_SHM208A_Sub066] (puzzle: Sensor for hsa-mir-208a) |  | 24.9 | 19 | 26.9 |  | 
3 | GCGAAAUGAUGUGACAUGAGGAUCACCCAUGUAACCUCAUGUAAGGAUAUCGGAAAAAAAAAAACCGAGAAGGUAUGGUCACGC [AK SSNG3-V2-27.1] (Eterna round: R96, puzzle: Same State NG 3) | 86.4 |  |  |  | 124 | 216
4 | CCGUUCAAUAAACAUGAGGAUCACCCAUGUGAUAAUAAGGGUGAGGAUAUGCAUCUGAAACAGGUGCAGAAGGCAUAAGAGCGG [JL SSNG3 3.91] (Eterna round: R96, puzzle: Same State NG 3) | 169 |  |  |  | 327 | 316
5 | CGUCCGGCCUGAGCUGGACGGUAGCAUGUACAUGAGGAUCACCCAUGUUCAUGUGCAGGCUUUUUGCUCGUCUUGUG [salish99_mir208a_modof_jandersonlee_003] (puzzle: Sensor for hsa-mir-208a) |  | 42.3 | 10.6 | 44.9 |  | 
6 | UGUUGUAUUACAGGAUAUCUAGUUUUUUUAUUUAGAGAAGGGUAUUCACAUGAGGAUCACCCAUGUAUAUACGAGGAAGUUGUG [JMF's solution 33] (Eterna round: R96, puzzle: Same State NG 1) | 36.4 |  |  |  |  | 
7 | AGAGCCGGCACCGAGGAUAUUCAUAUUAAAACAUGAGGAUCACCCAUGUAGGCCAGAAGGCCUUGGGAGAAGGCGGAUCGGCUCG [Xeonanis - 7] (puzzle: Same State 2) |  | 28.3 | 524 | 827 |  | 
8 | UGUUGUAUUACAGGAUAUCUAUUAUUUUUACUUAGAGAAGGGUAUUCACAUGAGGAUCACCCAUGUAUAUACGAGGAAGUUGUG [JMF's solution 27] (Eterna round: R96, puzzle: Same State NG 1) | 38.2 |  |  |  |  | 
9 | GUAGCAUACCGAGGAUAUUCAUAUUAACAUGAGGAUCACCCAUGUUGGCCACAUUAGUGGCCUUGGGAGAAGGCGGAAUGCUAC [Xeonanis - 20 Mod38] (Eterna round: R96, puzzle: Same State NG 2) | 107 |  |  |  | 19.6 | 140
10 | GGAGCCGGCACCGAGGAUAUUCAUAUUAAAACAUGAGGAUCACCCAUGUAGGCCAGAAGGCCUUGGGAGAAGGCGGACCGGCUCG [Xeonanis - 4] (puzzle: Same State 2) |  | 24 | 520 | 664 |  | 
11 | GACCGCGAGGGAGGAUAUGGAGCCUUAUUGGCUCCAGAAGGUCCAUAAGGGACAUGAGGAUCACCCAUGUGGGUUGAAGCGGUC [Fiskers NG1ss - 36] (Eterna round: R96, puzzle: Same State NG 1) | 108 |  |  |  |  | 
12 | CUACGAGCGCCACAGGAUAUACUGAGACUCACAUGAGGAUCACCCAUGUCCAAUUCUCCCAAAUAGUAGAAGGGUGACGCGCUCG [Maenve] (puzzle: Same State 2) |  | 37.1 | 480 | 950 |  | 
13 | AGGCCACCGGAAGGAUAUGGCACCUUAUUGGUGCCAGAAGGUCCAACAUGAGGAUCACCCAUGUGGGUGGGUUCUAAUGAACAU [Fiskers NG1 - 2] (Eterna round: R96, puzzle: Same State NG 1) | 37.6 |  |  |  | 76.5 | 47.9
14 | GUGGUCAGACAUGAGGAUCACCCAUGUGGAAUAAAUAACAACUAGGAUAUAUAAUAUAGGAUAUAAUAGAAGGAGUGAUUGGUG (Eterna round: R96, puzzle: Same State NG 3) | 121 |  |  |  |  | 
15 | CAGAGCCCAUGGGCCUGACAUGAGGAUCACCCAUGUGGCUUUGAGGAUAUAAGCGGAAACACCACUUAGAAGGCGAAGCCUAAC [Bequedbi] (Eterna round: R96, puzzle: Same State NG 3) | 37.1 |  |  |  | 489 | 11.3
16 | CUGCUCGUGUGAGGAUAUGCCGCCGUUUCGGCUGCAGAAGGUGCUACGUUACAUGAGGAUCACCCAUGUCUCUGUUGUUUCGUG [salish99_SSNG1_r04_944] (Eterna round: R96, puzzle: Same State NG 1) | 15.8 |  |  |  | 20.7 | 22.8
17 | UGCAUACAUGAGGAUCACCCAUGUCUACGAUGUCGAGGAUAUGGAUUGCCGUGAGGCGUGCCAGAAGGCGAAGUGG [Same State 1 - Mod of Vinnie Teenbexe v.2] (puzzle: Same State 1) |  | 26.2 | 33.7 | 30.1 |  | 
18 | CUGAGAUGUCAAGGAUAUCACGUCGAUUAGACGUGAGAAGGUGAUCUGCACAUGAGGAUCACCCAUGUGUUACAUGGAACUCAG [Brourd's SSNG1/1-A2 mod 11] (Eterna round: R96, puzzle: Same State NG 1) | 386 |  |  |  | 197 | 431
19 | AUAAGUUCGAUGCUCGUCUCUCCGUACAAACAUGAGGAUCACCCAUGUGAUCGGGAAGUAGCCCGGUCAGUAUGGCC [Ordierti] (puzzle: Sensor for hsa-mir-208a) |  | 35.1 | 24.4 | 38.5 |  | 
20 | UGGUACAUGGGAGGAUAUCAUGUAGAAACAUGAGGAUCACCCAUGUAGGUGGCCGGUAACCGGAAUGAGAAGGCCCAUGUACCU [JL SSNG1 3.62] (Eterna round: R96, puzzle: Same State NG 2) | 48.6 |  |  |  | 48.6 | 61.1
21 | AUUAAACAUGAGGAUCACCCAUGUCAACAAAGUCGAGGAUAUGGGCAAAUAAAAUUAGAACCAGAAGGCGAAUAAU [salish99_ss1_r3_063] (puzzle: Same State 1) |  | 29.2 | 167 | 229 |  | 
22 | AUCUCUGUGCCGCAGGAUAUACCAACGGCUACAUGAGGAUCACCCAUGUCAUACCGUCGAAAAUGGUAGAAGGGUGUGCACGAGC [Leesmala] (puzzle: Same State 2) |  | 16.4 | 45.5 | 61.3 |  | 
23 | GUAGCAUACCGAGGAUAUUCAUAUACAUGAGGAUCACCCAUGUUUAUAGGCCGAUUACGGCCUUGGGAGAAGGCGGAAUGCUAC [Xeonanis - 20 Mod25] (Eterna round: R96, puzzle: Same State NG 2) | 9.52 |  |  |  | 11.7 | 17.6
24 | AGAUGUUAAUUAGGAUAUGGACACAUGAGGAUCACCCAUGUAACGAAGAUACGAUGUGGUCAAGUCUAGAAGGGAUCGCUAACA [SameState NG2 #74] (Eterna round: R96, puzzle: Same State NG 2) | 26.9 |  |  |  | 38.1 | 36.6
